Data on 40 sequences can be found in the nanobody polyreactivity screen of Harvey et al. (2022).

A short description of this data set: yeast display, Sf9 membrane polyspecificity reagent, FACS + sequencing; frameworks hold sequencing errors. Put shortly: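 Synthetic nanobody libraries on Saccharomyces cerevisiae BJ5465 were galactose-induced for 36–48 hours, stained 1 hour at 4 °C with 10% biotinylated, detergent-solubilized Sf9 membrane reagent and enriched on streptavidin microbeads. FACS then separated cells into low and high (top ~1%) gates by anti-HA (expression) and streptavidin (reagent binding) fluorescence. Genes were colony-PCR amplified, MiSeq 2 × 250 sequenced and CDR-length filtered. A clone's polyreactivity label is that of its gate of origin.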
Take “QVQLVESGGGLVQAGGSLRLSCAASGITIYKYAMGWYRQAPGKERELVAAITRGGSTYYADSVKGRFTISRDNAKNSVYLQMNSLKPEDTAVYYCNKVYHWQTPGFGYGYWGQGTQVTVSS”: the “polyreactivity (PSR sort gate)” value is given as “high polyreactivity”. The value for “QVQLVESGGGLVQAGGSLRLSCAASGITLEVYAMGWYRQAPGKERELVAAITDSGGRTYYADSVKGRFTISRDNAKNTVYLQMNSLKPEDTAVYYCAADDTRVYGAGEYWGQGTQVTVSS” was “low polyreactivity”. Next, “QVQLVESGGGLVQAGGSLRLSCAASGITLGYYAMGWYRQAPGKERELVAAISYRGGNTYYADSVKGRFTISRDNAMKTVYLQMNSLKPEDSAVYYCAAYDEYYGYDYWGQGTQVTVSS”: “low polyreactivity”; “QVQLVESGGGLVQAGGSLRLSCAASGITLKKYAMVWYRQAPGKERELVAAISIRGTSTYYADSVKGRFTISRDNAKNSVFLQMNSLKPEDTAVYYFAALYVVGDVRSGYWGQCTQVTVSS”: “high polyreactivity”; “QVQLVESGGGLVQAGGSLRLSCAASGITLLGNTMGWYRQAPGKERELVAAIRTNSGRTYYADSVKGRFTISRDNAKNTVYLQMNSLKPEDTAVYYCAKRYFSYLGREMDYWGQGTQVTVSS”: “high polyreactivity”. On to “QVQLVESGGGLVQAGGSLRLSCAASGITLLYYAMGWYRQAPGKERELVAVIDWSGGDTYYADSVKGRFTISRDNAKNTVYLQMNSLKPEDTAVYYCARGSRLVYRRSGFDYWGQGTQVTVSS”, for which the “polyreactivity (PSR sort gate)” value is “low polyreactivity”. Next, “QVQLVESGGGLVQAGGSLRLSCAASGITLNGYVMRWYRQAPGKEREFVAVISSRGGSTYYADSVKGRFTISRDNAKNTVYLQMNSLKPEDTAVYYCAARYVREYNYWGQGTQVTVSS”: “high polyreactivity”; “QVQLVESGGGLVQAGGSLRLSCAASGITLNRNAMGWYRQAPGKERELVARISRRGGTTYYADSVKGRFTISRDNAKNTVYLQMNSLKPEDTAVYYCNAGPYGGNPFDYWGQGTQVTVSS”: “high polyreactivity”. “QVQLVESGGGLVQAGGSLRLSCAASGITLPVYGMGWYRQAPGKERELVAVIDIVGITNYADSVKGRFTISRDNAKNTVYLQMNSLKPEDTAVYYCAKRYVDLADGGEYYYWGQGTQVTVSS”: the “polyreactivity (PSR sort gate)” value is reported as “low polyreactivity”. Consider “QVQLVESGGGLVQAGGSLRLSCAASGITLRRNAMGWYRQAPGKERELVAAISKSGGRTYYADSVKGRFTISRDHAKNTVYLQMNSLKPEDTAVYYCAADVPWAASDYWGQGTQVTVSS”, for which the “polyreactivity (PSR sort gate)” value is “high polyreactivity”. As to “QVQLVESGGGLVQAGGSLRLSCAASGITLRYYTMGWYRQPPGKERELVADISYRGGSTTYADSVKGRFTISRDNAKNTVYLQMNSLKPEDTAVYYCNARKRTFPSRSIGGDYWGQGTQVTVSS”, the “polyreactivity (PSR sort gate)” value was “high polyreactivity”.

In the case of “QVQLVESGGGLVQAGGSLRLSCAASGITLSIYAMGWYRQAPGKERELVAAINGNGGSTYYADSVKGRFTISRDNAKNTVYLQMNSLKPEDTAVYYCAVTDYVYEHDDYWGQGTQVTVSS”, the “polyreactivity (PSR sort gate)” value is listed as “low polyreactivity”.

As for “QVQLVESGGGLVQAGGSLRLSCAASGITLTKNAMGWYRQAPGKERELVAGITRGSRTNYADSVKGRFTISRDNAKNTVYLQMNSLKPEDTAVYYCAASYGPYRGPVGGSKMYYWGQGTQVTVSS”, the “polyreactivity (PSR sort gate)” value is recorded as “high polyreactivity”.

For “QVQLVESGGGLVQAGGSLRLSCAASGITLTKNAMGWYRQAPGKERELVAGITRGSRTNYADSVKGRFTISRDNAKNTVYLQMNSLKPEDTAVYYCAASYWPYRGPVGGSKMYYWGQGTQVTVSS”, the “polyreactivity (PSR sort gate)” value is given as “high polyreactivity”. The value for “QVQLVESGGGLVQAGGSLRLSCAASGITLTRYAMGWYRQAPGKDRELVAAISTGGGSTYYADSVKGRFTISRDNAKNTVYLQMNSLKPEDTAVYYCAARIRFARGYPITRTYDYWGQGTQVTVSS” was “high polyreactivity”; that for “QVQLVESGGGLVQAGGSLRLSCAASGITLVSYARGWYRQAPGKERELVAAISWSGGRTFYADSVKGRFTISRDNAKNTVYLQMNRLKPEDTAVYYCNTAQYPYFYSHVSYPHDYWGQGTQVTVSS” was “high polyreactivity”. Next, “QVQLVESGGGLVQAGGSLRLSCAASGITLYEYAMGWYRQAPGKERELVAAMSTSGGRTRYADSVKGRFTISRDNAKNTVYLQMNSLKPEDTAVYYCNRLYGPGFKSVYGYDYWGQGTQVTVSS”: “high polyreactivity”. Turning to “QVQLVESGGGLVQAGGSLRLSCAASGITLYRYAMGWYRLAPGKERELVADISSGGGTTYYADSVKGRFTISRDNAKNTVYLQMNSLKPEDTAVYYCAADYGFRYPLYEFWGQGTQVTVSS”, the “polyreactivity (PSR sort gate)” value is “low polyreactivity”. On to “QVQLVESGGGLVQAGGSLRLSCAASGITPDYAMGWYRQAPGTERELVAAITWSGGRTYYADSVKGRFTISRDNAKNTVYLQMNSLKPEDTAVYYCAAEHYLGYDYWGQGTQVTVSS”, for which the “polyreactivity (PSR sort gate)” value is given as “low polyreactivity”. For “QVQLVESGGGLVQAGGSLRLSCAASGITSFFYDMGWYRQAPGKERELVAGISSGGSTNYADSVKGRFTISRDNAKNTVYLQMNSLKPEDTAVSYCAKDYPHTVSLGEYDYWGQGTQVTVSS”, the “polyreactivity (PSR sort gate)” value is recorded as “high polyreactivity”.

Consider “QVQLVESGGGLVQAGGSLRLSCAASGITSHWYVMGWYRQAPGKERELVAAINSSGGRTSYADSVKGRFTISRDNAKNTVYLQMNSLKPEDTAVYYCAAGYTHSYFLGATGKVDYWGQGTQVTVSS”, for which the “polyreactivity (PSR sort gate)” value is given as “low polyreactivity”. The value for “QVQLVESGGGLVQAGGSLRLSCAASGITSPSYAMGWYRQAPGKERELVAAISKNGVRTYYADSVKGRFTISRDNAKNTVYLQMNSLKPEDTAVYYCAARYNPLYATLYRRMDYWGQGTQVTVSS” was “high polyreactivity”; that for “QVQLVESGGGLVQAGGSLRLSCAASGITTTVYAMGWYRQAPGKERELVAGISWSTSSTYYADSVKGRFTISRDNAKNTVYLQMNSLKPEDNAVYYCAVYTITGRVLRQGPLYRHYYWGQGTQVTVSS” was “high polyreactivity”; that for “QVQLVESGGGLVQAGGSLRLSCAASGITYTDYDLGCYRQAPGKERELVAAISNGGGSTYYADSVKGRFTISRDNAKNTVYLQMNSLKPEDTGVYYWAAERVPSWWVEWGVAQWDDYWGQGTQVTVSS” was “low polyreactivity”. In the case of “QVQLVESGGGLVQAGGSLRLSCAASGITYYRYTMGWYRQAPGKDRELVASINWSGTRTYYADSVKGRFTISRDNAKNTVYLLMNSLKPEDTAVYYCAAKGAQGTSRRWFDYWGQGTQVTVSS”, the “polyreactivity (PSR sort gate)” value was “high polyreactivity”. As to “QVQLVESGGGLVQAGGSLRLSCAASGIYSYVMGWYRQAPGKERELVAAISGTGGRTYYADSVKGRFTISRDNAKNTVYLQMNSLKPEDTAVYYCAARGIYQPKTFDYWGQGTQVTVSS”, the “polyreactivity (PSR sort gate)” value is given as “high polyreactivity”. “QVQLVESGGGLVQAGGSLRLSCAASGKIFFRYTLGWYRQAPGKERELVAAISASGGSTYYADSVKGRFTISRDNAKNTVYLQMNSLKPEDTSVYYCAARILHYTSEYYYWGQGTQVTVSS”: the “polyreactivity (PSR sort gate)” value is “low polyreactivity”. “QVQLVESGGGLVQAGGSLRLSCAASGKIFYEYTMGWYRQAPGKERELVAAISWSGVSTYYADSVKGRFTISRDNAKNTVYLQMNSLKPEDTAVYYCAADRGNDYWGQGTQVTVSS”: the “polyreactivity (PSR sort gate)” value is reported as “low polyreactivity”.

On to “QVQLVESGGGLVQAGGSLRLSCAASGKTFPANAMGWYRPAPGKERELVADISVSDGSTYYADSVKGRFTISRDNAKNTVYLQMNSLKPQDTAVYYCNARKRPNFYVKSFTQIGGRFDYWGQGTQVTVSS”, for which the “polyreactivity (PSR sort gate)” value is on record as “low polyreactivity”. For “QVQLVESGGGLVQAGGSLRLSCAASGLDYYAMGWYRQAPGKERELVAAIDWSGVSTYYADSVKGRFTISRDNAKNSVYLQMNSLKPEDTAVYYCAALYDGWPRVSYGLGEYGYWGQGTQVTVSS”, the “polyreactivity (PSR sort gate)” value is given as “low polyreactivity”.

Consider “QVQLVESGGGLVQAGGSLRLSCAASGLIFANYAMGWYRQAPGKERELVAAITWSGGTTYYADSVKGRFTISRDNAKNTVYLQMNSLKPEDTAVYYCAAEVPYYQAAEYDYWGQGTQVTVSS”, for which the “polyreactivity (PSR sort gate)” value is given as “low polyreactivity”. Take “QVQLVESGGGLVQAGGSLRLSCAASGLIFARNAMVWYRQAPGKERELVAAIAKRGGSTFYADSVKVRFTISRDNAKNTVYLQMNSLKPEDTAVYYCNARSSETWHGDYWGQGTQVTVSS”: the “polyreactivity (PSR sort gate)” value is reported as “high polyreactivity”. For “QVQLVESGGGLVQAGGSLRLSCAASGLIFARYAMGWYRQAPGKERELVAAISSRGGGTYYADSVKGRFTISRDNAKNTVYLQMNSLKPEDTAVYYCNRLRGTPVGLSIGGYYYWGQGTQVTVSS”, the “polyreactivity (PSR sort gate)” value was “high polyreactivity”.

In the case of “QVQLVESGGGLVQAGGSLRLSCAASGLIFARYAMGWYRQAPGKERELVAAISSSGVSTDYADSVKGRFTISRDNAKNTVYLQMNSLKPEDTAVYYCAKRTGSRVRGGKYGYWGQGTQVTVSS”, the “polyreactivity (PSR sort gate)” value is reported as “high polyreactivity”. Consider “QVQLVESGGGLVQAGGSLRLSCAASGLIFATTVLGWYRQAPGKERELVASITTSGSRTYYADSVKGRFTISRDNAKNTVYLQMNSLKPEDTAVYYCAAYPTYLTPSSPGYDYWGQGTQVTVSS”, for which the “polyreactivity (PSR sort gate)” value is reported as “high polyreactivity”. As for “QVQLVESGGGLVQAGGSLRLSCAASGLIFAVYAMGWYRQAPGKERELVAGISASAASTYYADSVKGRFTISRDNAKNTVYLQMNSLKPEDTAVYYCAADFYWFWTYGTLWYGYEYWGQGTQVTVSS”, the “polyreactivity (PSR sort gate)” value is “high polyreactivity”. For the sequence “QVQLVESGGGLVQAGGSLRLSCAASGLIFAWYAMGWYRQAPGKERELVATISWNGDRTYYADSVKGRFTISRDNAKNTVYLQMNSLKPEDTAVYYCAARFGSGFNYWGQGTQVTVSS”, the “polyreactivity (PSR sort gate)” value is reported as “high polyreactivity”. With “QVQLVESGGGLVQAGGSLRLSCAASGLIFDDYAMGWYRQAPGKERELVAAISWSDGTTYYADSVKGRFTISRDNAKNTVYLQMNSLKTEDTAVYYCAAEEVSGWEYDYWGQGTQVTVSS”, the “polyreactivity (PSR sort gate)” value is listed as “high polyreactivity”. As to “QVQLVESGGGLVQAGGSLRLSCAASGLIFDPYAMGWYRQAPGKERELVADISSGGSTNYADSVKGRFTISRDNAKNTVYLQMTSLKPEDTAVYYCNKTIILDGYYFSLTLYDSWGQGTQVTVSS”, the “polyreactivity (PSR sort gate)” value is reported as “low polyreactivity”. Take “QVQLVESGGGLVQAGGSLRLSCAASGLIFDWYAMGWYRQAPGKERELVADISYSGGSTNYADSVKGRFTISRDNAKNTVYLQMNSLKPEDTAVYYCAADDYWTPFGYWGQGTQVTVSS”: the “polyreactivity (PSR sort gate)” value is “low polyreactivity”.
